Legend:
VEGF promoter = VEGF promoter luciferase assay in U87MG cells; format: cell-based, human
Experimental: FIGS. 31A-31B depict U87MG cells transiently co-transfected with a full-length human VEGF promoter luciferase plasmid and a pGL4.74 [hRluc/TK] plasmid as an internal control. Cells were treated with SEMA3F (640 ng/ml for 30 minutes) prior to the addition of DFO (250 μM) or the culture of cells in a hypoxia chamber (1% 02). After 18 hours, VEGF promoter luciferase activity was analyzed. FIG. 31C depicts a graph of U87MG cells transiently cotransfected with our VEGF promoter luciferase and pGL4.74 [hRluc/TK] plasmids and with either a pcDNA3.1 empty vector or our constitutively active Akt (2DAkt). The cells were treated with SEMA3F for 30 minutes prior to the addition of DFO. After 18 hours, VEGF promoter luciferase activity was analyzed. FIG. 31D depicts a graph of parental U87MG cells treated with SEMA3F, rapamycin (10 nM), Torin 1 (10 nM) alone or in combination as indicated for 30 minutes prior to the addition of DFO, and culture supernatants were collected after 18 hours; VEGF protein levels were analyzed by ELISA. In each panel data are representative of 3 independent experiments. Bar graphs represent the mean±SD of n=3 experiments performed in triplicate, *, p<0.01 vs. control.
SEMA3F inhibits hypoxia-induced production of VEGF via the mTOR pathway. The local expression and regulation of VEGF is key to many physiological and pathological processes (40, 41). These findings indicate that SEMA3F can target the transcriptional activation of VEGF via its ability to target mTOR kinase activity (36, 42). To test the effect of SEMA3F on the regulation of VEGF expression, U87MG cells were transfected with a full-length 2.6 kb VEGF promoter-luciferase construct and exposed to the hypoxia mimetic agent desferrioxamine (DFO) or hypoxia (1% 02). […] To test the relative effect of SEMA3F on mTORC1/C2, U87MG cells transiently co-transfected with the 2DAkt construct and the full length VEGF promoter reporter construct, and the cells cultured in the absence or presence of SEMA3F. […] Finally, the effect of SEMA3F on the secretion of VEGF into conditioned media (by ELISA) was determined in the absence or presence of DFO.
Transfection and Luciferase assay: U87MG cells were transiently transfected with plasmid constructs (pcDNA3.1, WT mTOR, 2DAkt, VEGF luciferase reporter plasmid or pGL4.74 [hRluc/TK]) as indicated using Lipofectamine 2000 reagent (Life Technologies) according to the manufacturer's instructions. After 18 hours, cells were treated as outlined in each experimental design. VEGF promoter activity was analyzed using a Dual-Luciferase Reporter Assay System (Promega), and luciferase activity was normalized by Renilla luciferase as an internal control.

mTORC1 and mTORC2 = experiment: Immunoprecipitation of mTOR with raptor and rictor in U87MG cells; format: cell-based, human; settings: SEMA3F 640 ng/ml, 30 minutes
Experimental: FIG. 29A depicts U87MG cells treated with SEMA3F (640 ng/ml) for 30 minutes and subjected to immunoprecipitation and Western blot analysis with anti-mTOR, -raptor and -rictor as illustrated. FIG. 29B depicts U87MG cells treated with rapamycin (10 nM) or Torin 1 (10 nM) for 30 minutes, prior to SEMA3F (640 ng/ml) treatment for 60 minutes; lysates were analyzed by Western blot. FIG. 29C depicts bar graphs representing densitometric analysis of the illustrated blot showing the fold change in intensity (mean±SD) relative to the untreated control (*, p <0.01; **, p<0.001 vs. untreated control). FIG. 29D depicts U87MG cells transiently transfected with a pcDNA3.1 empty vector or with constitutively active Akt (2DAkt). Cells were treated with SEMA3F (640 ng/ml) and lysates were analyzed by Western blot. All data are representative of 3 independent experiments.
FIGS. 35A-35B depict analysis of the effect of SEMA3F on mTORC2 activity. […] depicts a Western blot. U87MG cells were transiently transfected with a pcDNA3.1 empty vector or with constitutively active Akt (2DAkt). Cells were treated with SEMA3F (640 ng/ml) and lysates were analyzed by Western blot. FIG. 35B depicts a Western blot. U87MG cells were transiently transfected with a pcDNA3.1 empty vector or with 2DAkt. […]

B1: SEMA3F: Human recombinant full-length His-Myc-tagged SEMA3F, secreted by transfected 293T cells and purified; class 3 semaphorin, NRP-2 ligand (protein, listed as Homo sapiens)
chain: MLVAGLLLWASLLTGAWPSFPTQDHLPATPRVRLSFKELKATGTAHFFNFLLNTTDYRILLKDEDHDRMYVGSKDYVLSLDLHDINREPLIIHWAASPQRIEECVLSGKDVNGECGNFVRLIQPWNRTHLYVCGTGAYNPMCTYVNRGRRAQATPWTQTQAVRGRGSRATDGALRPMPTAPRQDYIFYLEPERLESGKGKCPYDPKLDTASALINEELYAGVYIDFMGTDAAIFRTLGKQTAMRTDQYNSRWLNDPSFIHAELIPDSAERNDDKLYFFFRERSAEAPQSPAVYARIGRICLNDDGGHCCLVNKWSTFLKARLVCSVPGEDGIETHFDELQDVFVQQTQDVRNPVIYAVFTSSGSVFRGSAVCVYSMADIRMVFNGPFAHKEGPNYQWMPFSGKMPYPRPGTCPGGTFTPSMKSTKDYPDEVINFMRSHPLMYQAVYPLQRRPLVVRTGAPYRLTTIAVDQVDAADGRYEVLFLGTDRGTVQKVIVLPKDDQELEELMLEEVEVFKDPAPVKTMTISSKRQQLYVASAVGVTHLSLHRCQAYGAACADCCLARDPYCAWDGQACSRYTASSKRRSRRQDVRHGNPIRQCRGFNSNANKNAVESVQYGVAGSAAFLECQPRSPQATVKWLFQRDPGDRRREIRAEDRFLRTEQGLLLRALQLSDRGLYSCTATENNFKHVVTRVQLHVLGRDAVHAALFPPLSMSAPPPPGAGPPTPPYQELAQLLAQPEVGLIHQYCQGYWRHVPPSPREAPGAPRSPEPQDQKKPRNRRHHPPDT
modifications: His-Myc tag
notes: Human recombinant full-length His-Myc-tagged SEMA3F, secreted by transfected 293T cells and purified; class 3 semaphorin, NRP-2 ligand
inhibition of DFO-induced VEGF promoter activity (VEGF promoter; SEMA3F 640 ng/ml pre-treatment 30 minutes, DFO 250 μM, 18 hours): 43% | reduction of hypoxia-induced VEGF promoter activity (VEGF promoter; SEMA3F 640 ng/ml, 18 hours culture in 1% O2): 44% | VEGF promoter activity in 2DAkt transfected cells (VEGF promoter; SEMA3F 30 minutes prior to DFO): failed to attenuate VEGF promoter activity | association between mTOR and raptor / rictor (mTORC1 and mTORC2): inhibited the association between mTOR and both raptor and rictor | mTOR/rictor interaction in 2DAkt transfected cells (mTORC1 and mTORC2): inhibited mTOR/rictor interaction

Source: patent US12397037B2, “Methods and compositions for immunomodulation” (CHILDREN'S MEDICAL CENTER CORPORATION, priority 2014, dated 2025)
